Values of other authors in article PMC5871712.
Read-outs that look alike come from different tables or passages of the source.

Key:
[1] = target: CRFR2 (Rattus norvegicus) (UniProt P47866)
[2] = target: CRFR1 (Rattus norvegicus) (UniProt P35353)
[3] = target: CRFR1 (Rattus norvegicus) (UniProt P35353); remark: listed apart in the source
[4] = target: CRFR2 (Rattus norvegicus) (UniProt P47866); remark: listed apart in the source

Chain of CRF (P01143 145-187): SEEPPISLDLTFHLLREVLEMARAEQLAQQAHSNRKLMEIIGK
Chain of Ucn1 (P55090 81-122): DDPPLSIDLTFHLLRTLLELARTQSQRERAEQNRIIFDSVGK
Chain of CRFR2 (Rattus norvegicus) (P47866 20-411): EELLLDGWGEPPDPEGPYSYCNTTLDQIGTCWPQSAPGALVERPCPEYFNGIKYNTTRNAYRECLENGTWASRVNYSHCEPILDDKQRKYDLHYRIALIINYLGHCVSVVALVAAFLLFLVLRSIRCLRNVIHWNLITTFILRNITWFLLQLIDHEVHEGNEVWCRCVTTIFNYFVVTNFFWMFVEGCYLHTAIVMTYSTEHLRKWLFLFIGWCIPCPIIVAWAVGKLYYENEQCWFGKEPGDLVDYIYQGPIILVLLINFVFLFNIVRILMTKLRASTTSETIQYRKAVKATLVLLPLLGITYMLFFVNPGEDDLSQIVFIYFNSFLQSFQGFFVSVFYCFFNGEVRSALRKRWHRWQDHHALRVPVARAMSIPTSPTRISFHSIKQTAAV
Chain of CRFR1 (Rattus norvegicus) (P35353 24-415): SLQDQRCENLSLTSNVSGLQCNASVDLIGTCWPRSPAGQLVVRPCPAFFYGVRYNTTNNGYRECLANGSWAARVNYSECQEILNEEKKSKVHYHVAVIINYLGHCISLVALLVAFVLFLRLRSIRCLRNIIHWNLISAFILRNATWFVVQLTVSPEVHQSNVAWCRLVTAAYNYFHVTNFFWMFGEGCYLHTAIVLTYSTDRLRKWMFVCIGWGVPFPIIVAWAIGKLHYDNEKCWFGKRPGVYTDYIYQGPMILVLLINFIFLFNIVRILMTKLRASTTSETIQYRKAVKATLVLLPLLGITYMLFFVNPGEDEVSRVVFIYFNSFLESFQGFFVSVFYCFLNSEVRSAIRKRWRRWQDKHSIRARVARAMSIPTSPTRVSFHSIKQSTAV

Ki [1] [nM]	Ki [2] [nM]	Ki [3] [nM]	Ki [4] [nM]	Substance
42	1.6			CRF (from UniProt P01143)
		0.17	0.86	Ucn1 (from UniProt P55090)
